In paper PMC6508891:

Tests used:
[1] = target: recombinant human VWF A1 domain with His tag (human); assay: SPR; BIAcore 3000; VWF A1A2A3 or single A domain amine-coupled to CM5; C3 or C4 perfused at 0-2.0 μM; 10 mM HEPES, 150 mM NaCl, 0.005% Tween-20, pH 7.4, 25°C, 10 µL/min; 1:1 Langmuir and shift baseline models
[2] = target: recombinant human VWF A1A2A3 triple domain with His tag (human); assay: as above
[3] = target: recombinant human VWF A3 domain with His tag (human); assay: as above
[4] = target: purified human complement component C3 (human) (UniProt P01024); assay: SPR; BIAcore 3000; C3 or C4 amine-coupled to CM5; VWF A1A2A3 or single A domain perfused at 0-2.0 μM; 10 mM HEPES, 150 mM NaCl, 0.005% Tween-20, pH 7.4, 25°C, 10 µL/min; 1:1 Langmuir and shift baseline models
[5] = target: purified human complement component C4 (human); assay: as above

Substance | Kd [1] [nM] | Kd [2] [nM] | Kd [3] [nM] | Kd [4] [nM] | Kd [5] [nM]
purified human complement component C3 (from UniProt P01024 23-667; P01024 672-1663) (natural protein) | 252 | 661 | 137 |  | 
purified human complement component C4 (natural protein) | 139 | > 2000 | > 2000 |  | 
recombinant human VWF A1 domain with His tag (domain or fragment) |  |  |  | > 2000 | 504
recombinant human VWF A1A2A3 triple domain with His tag (domain or fragment) |  |  |  | 232 | 523
recombinant human VWF A3 domain with His tag (domain or fragment) |  |  |  | 100 | > 2000
